Laboratory results as given in patent US20130209454A1 (CALIFORNIA INSTITUTE OF TECHNOLOGY, published 2013).
Read-outs that look alike come from different tables or passages of the source.

Columns and labels:
Assay in all cases: cell-based or functional assay
[1] = target: HIV-1 Env of strain AC10.0.29 (HIV-1)
[2] = target: HIV-1 Env of strain ZM214M.PL15 (HIV-1)
[3] = target: HIV-1 Env of strain TRO.11 (HIV-1)
[4] = target: HIV-1 Env of strain QH0692.42 (HIV-1)
[5] = target: HIV-1 Env of strain CAP45.2.00.G3 (HIV-1)
[6] = target: HIV-1 Env of strain T257-31 (HIV-1)
[7] = target: HIV-1 Env of strain SC422661.8 (HIV-1)
[8] = target: HIV-1 Env of strain Du172.17 (HIV-1)
[9] = target: HIV-1 Env of strain AC10.0.29 (HIV-1); remark: listed apart in the source
[10] = target: HIV-1 Env of strain CAP210.2.00.E8 (HIV-1)
[11] = target: HIV-1 Env of strain TRO.11 (HIV-1); remark: listed apart in the source
[12] = target: HIV-1 Env of strain CAP45.2.00.G3 (HIV-1); remark: listed apart in the source
[13] = target: HIV-1 Env of strain SC422661.8 (HIV-1); remark: listed apart in the source
[14] = target: HIV-1 strain X1254_c3 envelope (gp120) (HIV-1)
[15] = target: HIV-1 strain C3347.c11 envelope (gp120) (HIV-1)
[16] = target: HIV-1 strain 6540.v4.c1 envelope (gp120) (HIV-1)
[17] = target: HIV-1 strain 6545.v4.c1 envelope (gp120) (HIV-1)
[18] = target: HIV-1 strain TRO.11 envelope (gp120) (HIV-1)
[19] = target: HIV-1 strain 928-28 envelope (gp120) (HIV-1)
[20] = target: HIV-1 strain AC10.0.29 envelope (gp120) (HIV-1)
[21] = target: HIV-1 strain CNE30 envelope (gp120) (HIV-1)
[22] = target: HIV-1 strain X1193_c1 envelope (gp120) (HIV-1)
[23] = target: HIV-1 strain ZM109F.PB4 envelope (gp120) (HIV-1)
[24] = target: HIV-1 strain Ce703010054_2A2 envelope (gp120) (HIV-1)

B1: NIH45-46 IgG (antibody, V domains shown)
VH: QVRLSQSGGQMKKPGESMRLSCRASGYEFLNCPINWIRLAPGRRPEWMGWLKPRGGAVNYARKFQGRVTMTRDVYSDTAFLELRSLTSDDTAVYFCTRGKYCTARDYYNWDFEHWGRGAPVTVSS
VL: EIVLTQSPATLSLSPGETAIISCRTSQSGSLAWYQQRPGQAPRLVIYSGSTRAAGIPDRFSGSRWGADYNLSISNLESGDFGVYYCQQYEFFGQGTKVQVDI
In the case of B1, the “neutralization IC50” value [1] is reported as 0.9 µg/mL, the “neutralization IC50” value [2] is reported as 0.3 µg/mL and the “neutralization IC50” value [3] is reported as 1.9 µg/mL. For the same binder, the “neutralization IC50” value [4] was 0.7 µg/mL, the “neutralization IC50” value [5] was greater than 50 µg/mL and the “neutralization IC50” value [6] was 0.5 µg/mL. The “neutralization IC50” value [7] was 0.05 µg/mL, the “neutralization IC50” value [8] was greater than 50 µg/mL and the “neutralization IC50” value [9] was 0.9 µg/mL. The “neutralization IC50” value [10] was greater than 50 µg/mL, the “neutralization IC50” value [11] was 1 µg/mL and the “neutralization IC50” value [12] was greater than 50 µg/mL. The “neutralization IC50” value [13] was 0.06 µg/mL.

B2: NIH45-46 IgG (antibody, V domains shown)
VH: B1 VH
VL: B1 VL
B2 was tested, and the “neutralization IC80” value [14] was 0.107 µg/mL, the “neutralization IC80” value [15] was 0.094 µg/mL and the “neutralization IC80” value [16] was greater than 50 µg/mL. The “neutralization IC80” value [17] was greater than 50 µg/mL, the “neutralization IC80” value [18] was 7.49 µg/mL and the “neutralization IC80” value [19] was 0.64 µg/mL. The “neutralization IC80” value [20] was 1.93 µg/mL, the “neutralization IC80” value [21] was 1.07 µg/mL and the “neutralization IC80” value [22] was 0.064 µg/mL. The “neutralization IC80” value [23] was 0.437 µg/mL and the “neutralization IC80” value [24] was 0.538 µg/mL.
